Measured values taken from PMC12079668.

T1: zebrafish Cavin4a HR1 domain (residues 16-123) (zebrafish) (UniProt A1L260)
T1 sequence: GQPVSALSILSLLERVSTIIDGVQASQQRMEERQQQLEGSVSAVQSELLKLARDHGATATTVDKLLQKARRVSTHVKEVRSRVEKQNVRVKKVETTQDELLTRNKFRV

B1: mouse Cavin1 HR1 domain (residues 45–155), His-Ub-tagged, O54724 K115Q; R117Q; K118Q; K124Q; R127Q (protein)
chain: LIKSDQVNGVLVLSLLDKIIGAVDQIQLTQAQLEERQAEMEGAVQSIQGELSKLGKAHATTSNTVSKLLEQVQQVSVNVQTVQGSLERQAGQIKKLEVNEAELLRRRNFKV
B2: Nanobody NbB7 (VHH)
VHH: QVQLQESGGGLVQAGGSLRLSCAVSGIRVNVNAMYWYRQAPGKQRELVAIITTFGSTNYADSAKGRFTISRDNTKNTVYLQMDNLKPEDTAVYYCNAPQFTDRYWGQGTQVTVSS

Tests used:
nanobody NbB7 = test: ITC; details: chain shown with the change
[1] = target: T1, zebrafish Cavin4a HR1 domain (residues 16-123) (zebrafish); test: ITC; NbA12 at 500 μM or NbB7 at 400 μM titrated into 30 μM (monomer) cavin HR1 domain or His-MBP full-length mC1; GF150 buffer (20 mM HEPES pH 7.4, 150 mM NaCl), 25°C; fitted with a 1:1 binding ratio

| Binder | Kd (nanobody NbB7) | Kd [1] |
| --- | --- | --- |
| B1 | 892 nM |  |
| B2 |  | 1490 nM |
